Assay: yeast display, Sf9 membrane polyspecificity reagent, FACS + sequencing; frameworks hold sequencing errors
Outline: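 Polyreactivity labels are assigned by the sorting gate from which each nanobody was recovered. The gates were low and high (top ~1%), set on anti-HA fluorescence for expression and streptavidin fluorescence for reagent binding. Before sorting, galactose-induced (36–48 hours) yeast display cells were stained for 1 hour at 4 °C with 10% biotinylated, detergent-solubilized Sf9 membrane reagent.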

Sequence | polyreactivity (PSR sort gate)
QVQLVESGGGLVQAGGSLRLSCAASGRTFVYNAMGWYRQAPGKERELVAAITTNGGSTYYADSVKGRFTISRDNSKNTVYLQMNSLKPEDTAVYYCAADYSLPWSWLYEYWGQGTQVTVSS | low polyreactivity
QVQLVESGGGLVQAGGSLRLSCAASGFIFSSYAMGWYIQAPGKERELVAAISRSGGRTYYADSVKGRFTISRDNAKNTVYLKMNSLKPEDTAVYYCAAKWLGTAGDDYWGQGTQVTVSS | high polyreactivity
QVQLVESGGGLVQAGGSLRLSCAASGSTFFFNAMGWYRQAPGKERELVASITDTSGRTYYADSVKGRFTISRDNAKNTVYLHMNSLKPEDTAVYYCDKDFDQGGREMDYWGQGTQVTVSS | low polyreactivity
QVQLVESGGGLVQAGGSLRLSCAASGPTFRRYGMGWYRQAPGKERELVDAITTRGGSTYYADSVKGRFTISRDNAKNTVYLQMNSLKPEDTAVYYCAAPRKYFYSSATGNYWGQGTQVTVSS | high polyreactivity
QVQLVVSGGGLVQQGGSLRLSCAASGTFRYYTMGWYRQAPGKERELVAAISRSGGRSYYADSVTGRCTISRDNAKNTVDLPMNSLKPEDTAVYYCAARYKLYYPDYYYWGQGTQVTVSS | high polyreactivity
QVQLVESGGGLVQAGGSLRLSRAASGRTFYGYAMGWYRQAPGKESELVARIRSGGSTNYADSVKGRFTISRDNAKNTVYLQMNSLIPEDTAVYYCAARPGAAGYKYYYWGQGTQVTVSS | high polyreactivity
QVQLVESGGGLVQAGGSLRLSCAASGRTFYDNAMGWYRQAPGKERELVAVISTSGARTYYADSVKGRFTISRDNAKNTVYLQMNSLKPEDTAVYYCAAGPALWQAYRMYYWGQGTQVTVSS | high polyreactivity
QVQLVESGGGLVQAGGSLRLSCAASGRTFWFYGMGWYREAAGKEREFVARISGSGGSTYYADSVKGRFTISRDNAKNTVYLQMNSLKPEDTAVYYCAKDNRYPYPSGLDYWGQGTQVTVSS | high polyreactivity
QVQLVESGGGLVQAGGSLRISCAASGSIFGGYAMGWYRQAPGKERELVAAISSGGSTYYADSVKGRFTISRDNAKNTVYLQMNSLKPEDTAVYYCATSTYAYRRNSYYYTRPRFGYWGQGTQVTVSS | high polyreactivity
QVQLVESGGGLVQAGGRLRLSCAASGSTFHYYAMGWDRQAPGKERELVAAISQSGSGTYYADSVKGLFTISRDNAKKTVYLQMNSLKPEDTAVYYCAKDITGLSRYRRDYWGQGTQVTVSS | low polyreactivity
QVQIVESGGGLFQAGGSLRISCAASGRIFQYYTMGWYRQAPGKERELVATISRRGGTTYYADSVKGRFTISRDNAKNTVYLQMNSLKPEDTAVYYCNADSRTYRYYWSYGYWGQGTQVTVSS | high polyreactivity
QVQLVESGGGLVQAGGSLRLSCAASGRIFGRYAMGWYRQAPGKERELVAAISSGSSTNYADSLKGRFTISRDNAKNTVYLQMNSLKPEDTAVYYCAVVLYRHWWYDYWGQGTQVTVSS | high polyreactivity
QVQLVESGGGLVQAGGSLRLSCAASGSIIYLYAMGWYRQAPGKERELVAAISKSGSRTYYADSVKGRFTISRDNAKNTVYLQMNSLKPEDTAVYYCATPYRVYGEGYYWGQGTQVTVSS | high polyreactivity
QVQLVESGGGLVQAGGSLRLSCAASGRIFDYYPKGWYRQAPGKERELVAAISVRGGSTYYADSVKGRFTISRDNAKNTVYLQMNSLKPEDTAVYYCAARSWPHRTYYYWGQGTQVTVSS | high polyreactivity
QVQLVESGGGLVQAGGSLRLSCAASGSTFKYYAMGWYRQAPGKERELVAAITWRGGSTYYADSVKGRFTISRDNAKNTVYLQMNSLKPEDTAVYYCNRAYLYAYRSWWETYLRGDYWGQGTQVTVSS | high polyreactivity
QVQLVESGGGLVQAGGSLRLSCAASGFIFLRYGMGWYRQAPGKARELVATISWSGDSTYADSVKGRFTISRDNAKNTLYLQMNSLKPEDTAVYYCATSGDWWGFRYDYWGQGTQVTVSS | low polyreactivity

Sequence | polyreactivity (PSR sort gate)
QVQLVESGGGLLQAGGSLRLSCAASGTIFAYYAMGWYRPAPEKERELVARITYSTDRTYYADSVKGRFTISRDNAKNTVYLQMNRLKPEDTAVYYCAVETWWGFKRYKFDYWGLGTQVTVSS | low polyreactivity
QVQLVESGGGLVQAGGSLRLSSAASGSIFPSYAMGWYIQAPGKETELVAAITTSGGNTFYADSVKGRFTISRDNAKNTVYLQMNSLKPEDTAVYYCAADYSPYTVEYDYWGQGTQVTVSS | low polyreactivity
PVQLVDSGGGLVQAGGSLRLSCAASGSIFYRNALGWYRQAPGKERELVAAISGRGGSTNYADSVKGRFTISRDNAKNTVYLQMNSLKPEDTAVYYCNRYGVANILVRGGYWGQGTQVTVSA | high polyreactivity
QVHLVESGGGLVQAGGSLRLSCAASGSNFARNAMGWYRHAPGKERELVAAITYSGGRTYYADSVKGRFTISRDNAKNTVYLQMNSLKPEDTAVFYCAVKSFSGHGDYWGQGTEVTVSS | low polyreactivity
QVQLVESVGGLVQAGGSLRLSCAASGNTFHTNAMGWYRQAPGKERELVAAITGGGSTYYADSVKGRFTISRDNAKNTVYLQMNSLKPEDTAVYYFNTDVPYGLDVSDTIDYYYWGQGTQVTVSS | low polyreactivity
QVQLVESGGGLVHAGGSLRLSCAASGFTFLRYVMGWYRQTPGKERELVAAISYSGGRTYYADSVKGRFTISRDNAKKTVYLQMNSLKPEDTAVYYCAAESFYPAGFRGYWGQGTQVTVSS | high polyreactivity
QVQLVESGGGLVQSGGSLRLSCAASGGTFHKYDMGWYRQAPGKERELVAAITRSGGSTYYADSVKGRFTISRDNAKNTVYLQMNSLKPEDTAVYFCNAGKRGSTYYYWGQGTQVTVSS | high polyreactivity
QVQLVESGGGLVQAGGSLRLSCAASGFTYYYYAMGWYRQAHGKERELVAAISTRDGNTYYADSVKGRFTISRDNAKNTVYLQMNSLKPEDTAVYYCAADYFRYYPYDYWGQGTLVTVSS | low polyreactivity
QVQLRESGGGLVQAGGSLRLSCAASGRILYSYAMGWYRQAPGKERELVAAISWRGGPTYYADSVKGRFTISRDYAKNSVYLPMNSLKPEDTAVYYCAAEFYDLPWLYDYWGQGTQVTVSS | low polyreactivity
QVQLVESGGGLVQAGGSLRLSCAASGRIFENNAMGWYRPAPGKERELVAAITSGGSTYYADSVKGRFTISRDNAKNTVYLQMNSLKPEDTAVYYCNVTFRVDPWTRTGYDYWGQGTQVTVSS | high polyreactivity
QVQLVESVGGLLQAGGSLRLSCAASGFTFSGNGRGWYRQAPGKERELVAAITSTGNTYYADSVKGRFTISRDNAKKTVYLQMNRLKPEDTAVYYCARRGDLLYDYWGQGTQVTVSS | low polyreactivity
QVQLVESGGGLVQAGGSLRLSCAASRRTFWNYAMGWYRQAPGKESEFVAVIRFSDGSTYYADSVKGRFTISRDNAKTTVYLQMHSLKPEDTPVYYCAAKGPRRWGSGFDYWGQRTQVTVSS | low polyreactivity
QVQLVESGGGLVQAGGSLRLSCAATGTTFGYYTMGWYRQAPGKERELDAAISWSGSSTYYADSVKGRFTISRDTAKNTVYLQMNSLKPEDTAVYYCNARGGARAWYFAYKYWGQGTQVTVSS | high polyreactivity
QVQLVESGGGLVQAGGRLRLSCAASGSSFLGYVMGWSRQAPGKERELVAAITRSGGRTYYADSVKGRFTISRDNAKNTVYLQMTSLNPEDTAVYYCAALRGPSFHGYGYWGQGSQVTVSS | high polyreactivity
QVQLVESGGGLVQAGGSLRLSCAASGFTCGYYAMGWYREAPGKEREFVATISYGTGSTYYADSVKGRFTISRDNAKNTVSFQMNSLKPEDTAVYYCNADTWPGEYNGYFSGAYDYWGQGTQVTVSS | high polyreactivity
QVQLVESGGGLVQAGGSLRLSCAASGSTFRYNAMGWYIQAPGKERELVAAITSTGDSTYYADSVKGRFTISRDNAKNTVYLQMNSLKPEYTAVYYCAARSYASPGWRYEYWGQGTQVTVSS | low polyreactivity

— the nanobody polyreactivity screen of Harvey et al. (2022)
